Results taken from publication PMC12421950, “Structural insights into manganese-dependent arylsulfatase from Enterococcus faecium and its catalytic promiscuity” (mBio, 2025).

Columns and labels:
EfAS = biological target: T1, EfAS (Enterococcus faecium, UniProt I3U6E8); assay: p-nitrophenol colorimetric assay at […] nm, Lineweaver-Burk; assay type: biochemical; details: read-out: Kinetic parameters / Km (×10^-3 M); 50 mM sodium acetate pH 4.5, 1 mM MnCl2, 37 °C
T1 construct: gene HMPREF0351_12962; synthetic codon-optimised gene in pSMT3, E. coli BL21(DE3); His6-SUMO tag removed by Ulp1; homotetramer, 323 kDa by SEC; residues 9-488 modelled; C61 partly oxidised to formylglycine
T1 sequence (I3U6E8 1-491 limits assumed): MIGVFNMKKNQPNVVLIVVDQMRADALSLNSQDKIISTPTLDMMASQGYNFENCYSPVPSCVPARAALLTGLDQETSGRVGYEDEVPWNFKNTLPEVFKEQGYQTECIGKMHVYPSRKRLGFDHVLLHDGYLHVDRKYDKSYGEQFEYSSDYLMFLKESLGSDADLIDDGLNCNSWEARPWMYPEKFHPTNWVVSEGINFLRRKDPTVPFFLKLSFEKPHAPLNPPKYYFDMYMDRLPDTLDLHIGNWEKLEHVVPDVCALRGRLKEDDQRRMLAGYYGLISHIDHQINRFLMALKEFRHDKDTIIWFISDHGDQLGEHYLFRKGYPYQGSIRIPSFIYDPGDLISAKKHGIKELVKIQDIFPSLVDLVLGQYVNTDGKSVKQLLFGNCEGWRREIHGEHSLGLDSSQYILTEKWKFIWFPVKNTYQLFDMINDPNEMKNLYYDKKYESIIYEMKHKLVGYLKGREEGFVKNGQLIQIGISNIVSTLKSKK

[1] = biological target: arylsulfatase from Enterococcus faecium (EfAS), wild type (Enterococcus faecium); assay: crystal structure; vapor diffusion at 17°C, 0.1 M sodium cacodylate pH 6.4, 8% PEG3350, 0.2 M MnCl2; space group P42(1)2, two molecules in the asymmetric unit, tetramer through symmetry-related operations
purified protein [2] = substrate: O=[N+]([O-])c1ccc(OP(=O)(O)O)cc1; assay: purified protein; assay type: biochemical, Enterococcus faecium; details: 50 mM sodium acetate pH 4.5, 1 mM MnCl2, 37 °C
purified protein [3] = substrate: O=[N+]([O-])c1ccc(OS(=O)(=O)O)cc1; assay: purified protein; assay type: biochemical, Enterococcus faecium; details: 50 mM sodium acetate pH 4.5, 1 mM MnCl2, 37 °C

Work on `O=[N+]([O-])c1ccc(OP(=O)(O)c2ccccc2)cc1` [p-nitrophenyl phenylphosphonate] yielded a Km (EfAS) of 1410 µM.

Work on “arylsulfatase from Enterococcus faecium (EfAS), wild type (enzyme)” yielded a stoichiometry N [1] of 4.

B1: EfAS (Enterococcus faecium DO) (protein)
chain: T1 sequence (I3U6E8 1-491 limits assumed)
notes: synthetic codon-optimised gene in pSMT3, E. coli BL21(DE3); His6-SUMO tag removed by Ulp1; homotetramer, 323 kDa by SEC; residues 9-488 modelled; C61 partly oxidised to formylglycine
B1 showed a Km (purified protein [2]) of 1285 µM, a kcat (purified protein [2]) of 0.0318 s⁻¹ and a kcat/Km (purified protein [2]) of 24.8 M⁻¹ s⁻¹. For the same molecule, the Km (purified protein [3]) was 677 µM, the kcat (purified protein [3]) was 0.0831 s⁻¹ and the kcat/Km (purified protein [3]) was 123 M⁻¹ s⁻¹.
